From patent publication US20140087995A1 (published 2014)
Numbered stars: 1 amine (or outer) side, 2 acyl side, 3 side chain; on linkers, the order of the positions; unused ones are H or OH. Bridge positions count the residues as written; N and C are the ends. Side chains are listed from the residue outwards. Ends that are not written are not given here. * marks the point of attachment. C20 diacid = O=C(O)CCCCCCCCCCCCCCCCCCC(=O)*; γGlu = O=C(O)[C@H](CCC(=O)[*:2])N[*:1]; AEEA = NCCOCCOCC(=O)O

T1: rat calcitonin receptor (rat, UniProt P32214 25-516)
T1 construct: whole, on cells; Used as membranes prepared from the transfected cells; also called rCTR; rCT
T1 sequence (looked up): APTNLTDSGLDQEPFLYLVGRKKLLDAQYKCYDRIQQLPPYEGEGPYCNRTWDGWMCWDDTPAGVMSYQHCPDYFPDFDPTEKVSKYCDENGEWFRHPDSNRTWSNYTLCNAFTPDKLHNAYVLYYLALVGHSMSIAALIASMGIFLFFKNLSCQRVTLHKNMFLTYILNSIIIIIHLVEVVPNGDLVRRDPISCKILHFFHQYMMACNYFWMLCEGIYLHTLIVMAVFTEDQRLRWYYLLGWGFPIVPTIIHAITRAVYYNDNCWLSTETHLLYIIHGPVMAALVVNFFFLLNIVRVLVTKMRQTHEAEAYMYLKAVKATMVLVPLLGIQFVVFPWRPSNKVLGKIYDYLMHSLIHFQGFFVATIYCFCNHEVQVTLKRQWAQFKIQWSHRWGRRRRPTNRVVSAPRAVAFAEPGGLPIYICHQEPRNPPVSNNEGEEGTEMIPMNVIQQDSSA

T2: human calcitonin receptor (human, UniProt P30988 25-474)
T2 construct: whole, on cells; Used as membranes prepared from the transfected cells; also called hCTR; hCT
T2 sequence (looked up): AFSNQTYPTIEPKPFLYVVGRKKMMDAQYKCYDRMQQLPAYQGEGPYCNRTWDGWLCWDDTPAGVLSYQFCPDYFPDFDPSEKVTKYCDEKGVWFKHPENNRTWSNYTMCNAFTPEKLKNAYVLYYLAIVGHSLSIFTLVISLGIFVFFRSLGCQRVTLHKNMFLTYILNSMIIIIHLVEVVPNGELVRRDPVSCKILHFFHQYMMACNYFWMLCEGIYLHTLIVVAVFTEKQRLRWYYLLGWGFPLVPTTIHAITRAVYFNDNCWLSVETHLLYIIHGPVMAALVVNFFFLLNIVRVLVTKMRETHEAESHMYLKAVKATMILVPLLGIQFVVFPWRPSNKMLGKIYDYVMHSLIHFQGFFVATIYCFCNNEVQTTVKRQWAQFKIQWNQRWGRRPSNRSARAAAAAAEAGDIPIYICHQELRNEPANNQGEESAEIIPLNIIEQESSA

B1: N^ε1-[2-[2-[2-[[(4S)-4-carboxy-4-(19-carboxynonadecanoylamino)butanoyl]amino]ethoxy]ethoxy]acetyl]-[Gly14,Arg17,Pro21,Pro27,Pro31]-h-amylin (peptide)
peptide: K([AEEA-γGlu-C20 diacid])CNTATCATQRLAGFLRHSSPNFGAIPSSTPVGSNTY-NH2
modifications: disulfide 2-7; N-terminus assumed
SMILES: CC[C@H](C)[C@H](NC(=O)[C@H](C)NC(=O)CNC(=O)[C@H](Cc1ccccc1)NC(=O)[C@H](CC(N)=O)NC(=O)[C@@H]1CCCN1C(=O)[C@H](CO)NC(=O)[C@H](CO)NC(=O)[C@H](Cc1c[nH]cn1)NC(=O)[C@H](CCCNC(=N)N)NC(=O)[C@H](CC(C)C)NC(=O)[C@H](Cc1ccccc1)NC(=O)CNC(=O)[C@H](C)NC(=O)[C@H](CC(C)C)NC(=O)[C@H](CCCNC(=N)N)NC(=O)[C@H](CCC(N)=O)NC(=O)[C@@H](NC(=O)[C@H](C)NC(=O)[C@@H]1CSSC[C@H](NC(=O)[C@@H](N)CCCCNC(=O)COCCOCCNC(=O)CC[C@H](NC(=O)CCCCCCCCCCCCCCCCCCC(=O)O)C(=O)O)C(=O)N[C@@H](CC(N)=O)C(=O)N[C@@H]([C@@H](C)O)C(=O)N[C@@H](C)C(=O)N[C@@H]([C@@H](C)O)C(=O)N1)[C@@H](C)O)C(=O)N1CCC[C@H]1C(=O)N[C@@H](CO)C(=O)N[C@@H](CO)C(=O)N[C@H](C(=O)N1CCC[C@H]1C(=O)N[C@H](C(=O)NCC(=O)N[C@@H](CO)C(=O)N[C@@H](CC(N)=O)C(=O)N[C@H](C(=O)N[C@@H](Cc1ccc(O)cc1)C(N)=O)[C@@H](C)O)C(C)C)[C@@H](C)O
notes: Analogue of human amylin; disulfide and C-terminal amide as told for h-amylin; also called compound 71
B2: N^ε1-[2-[2-[2-[[(4S)-4-carboxy-4-(19-carboxynonadecanoylamino)butanoyl]amino]ethoxy]ethoxy]acetyl]-[His14,Arg17,Pro21,Pro27,Pro34]-h-amylin (peptide)
peptide: K([AEEA-γGlu-C20 diacid])CNTATCATQRLAHFLRHSSPNFGAIPSSTNVGPNTY-NH2
modifications: disulfide 2-7; N-terminus assumed
SMILES: CC[C@H](C)[C@H](NC(=O)[C@H](C)NC(=O)CNC(=O)[C@H](Cc1ccccc1)NC(=O)[C@H](CC(N)=O)NC(=O)[C@@H]1CCCN1C(=O)[C@H](CO)NC(=O)[C@H](CO)NC(=O)[C@H](Cc1c[nH]cn1)NC(=O)[C@H](CCCNC(=N)N)NC(=O)[C@H](CC(C)C)NC(=O)[C@H](Cc1ccccc1)NC(=O)[C@H](Cc1c[nH]cn1)NC(=O)[C@H](C)NC(=O)[C@H](CC(C)C)NC(=O)[C@H](CCCNC(=N)N)NC(=O)[C@H](CCC(N)=O)NC(=O)[C@@H](NC(=O)[C@H](C)NC(=O)[C@@H]1CSSC[C@H](NC(=O)[C@@H](N)CCCCNC(=O)COCCOCCNC(=O)CC[C@H](NC(=O)CCCCCCCCCCCCCCCCCCC(=O)O)C(=O)O)C(=O)N[C@@H](CC(N)=O)C(=O)N[C@@H]([C@@H](C)O)C(=O)N[C@@H](C)C(=O)N[C@@H]([C@@H](C)O)C(=O)N1)[C@@H](C)O)C(=O)N1CCC[C@H]1C(=O)N[C@@H](CO)C(=O)N[C@@H](CO)C(=O)N[C@H](C(=O)N[C@@H](CC(N)=O)C(=O)N[C@H](C(=O)NCC(=O)N1CCC[C@H]1C(=O)N[C@@H](CC(N)=O)C(=O)N[C@H](C(=O)N[C@@H](Cc1ccc(O)cc1)C(N)=O)[C@@H](C)O)C(C)C)[C@@H](C)O
notes: Analogue of human amylin; disulfide and C-terminal amide as told for h-amylin; also called compound 68
B3: N^ε1-[2-[2-[2-[[(4S)-4-carboxy-4-(19-carboxynonadecanoylamino)butanoyl]amino]ethoxy]ethoxy]acetyl]-[His14,Arg17,Pro21,Pro27,His34]-h-amylin (peptide)
peptide: K([AEEA-γGlu-C20 diacid])CNTATCATQRLAHFLRHSSPNFGAIPSSTNVGHNTY-NH2
modifications: disulfide 2-7; N-terminus assumed
SMILES: CC[C@H](C)[C@H](NC(=O)[C@H](C)NC(=O)CNC(=O)[C@H](Cc1ccccc1)NC(=O)[C@H](CC(N)=O)NC(=O)[C@@H]1CCCN1C(=O)[C@H](CO)NC(=O)[C@H](CO)NC(=O)[C@H](Cc1c[nH]cn1)NC(=O)[C@H](CCCNC(=N)N)NC(=O)[C@H](CC(C)C)NC(=O)[C@H](Cc1ccccc1)NC(=O)[C@H](Cc1c[nH]cn1)NC(=O)[C@H](C)NC(=O)[C@H](CC(C)C)NC(=O)[C@H](CCCNC(=N)N)NC(=O)[C@H](CCC(N)=O)NC(=O)[C@@H](NC(=O)[C@H](C)NC(=O)[C@@H]1CSSC[C@H](NC(=O)[C@@H](N)CCCCNC(=O)COCCOCCNC(=O)CC[C@H](NC(=O)CCCCCCCCCCCCCCCCCCC(=O)O)C(=O)O)C(=O)N[C@@H](CC(N)=O)C(=O)N[C@@H]([C@@H](C)O)C(=O)N[C@@H](C)C(=O)N[C@@H]([C@@H](C)O)C(=O)N1)[C@@H](C)O)C(=O)N1CCC[C@H]1C(=O)N[C@@H](CO)C(=O)N[C@@H](CO)C(=O)N[C@H](C(=O)N[C@@H](CC(N)=O)C(=O)N[C@H](C(=O)NCC(=O)N[C@@H](Cc1c[nH]cn1)C(=O)N[C@@H](CC(N)=O)C(=O)N[C@H](C(=O)N[C@@H](Cc1ccc(O)cc1)C(N)=O)[C@@H](C)O)C(C)C)[C@@H](C)O
notes: Analogue of human amylin; disulfide and C-terminal amide as told for h-amylin; also called compound 80
B4: N^ε1-[2-[2-[2-[[(4S)-4-carboxy-4-(19-carboxynonadecanoylamino)butanoyl]amino]ethoxy]ethoxy]acetyl]-[His14,Arg17,Pro21,Pro27,Arg34]-h-amylin (peptide)
peptide: K([AEEA-γGlu-C20 diacid])CNTATCATQRLAHFLRHSSPNFGAIPSSTNVGRNTY-NH2
modifications: disulfide 2-7; N-terminus assumed
SMILES: CC[C@H](C)[C@H](NC(=O)[C@H](C)NC(=O)CNC(=O)[C@H](Cc1ccccc1)NC(=O)[C@H](CC(N)=O)NC(=O)[C@@H]1CCCN1C(=O)[C@H](CO)NC(=O)[C@H](CO)NC(=O)[C@H](Cc1c[nH]cn1)NC(=O)[C@H](CCCNC(=N)N)NC(=O)[C@H](CC(C)C)NC(=O)[C@H](Cc1ccccc1)NC(=O)[C@H](Cc1c[nH]cn1)NC(=O)[C@H](C)NC(=O)[C@H](CC(C)C)NC(=O)[C@H](CCCNC(=N)N)NC(=O)[C@H](CCC(N)=O)NC(=O)[C@@H](NC(=O)[C@H](C)NC(=O)[C@@H]1CSSC[C@H](NC(=O)[C@@H](N)CCCCNC(=O)COCCOCCNC(=O)CC[C@H](NC(=O)CCCCCCCCCCCCCCCCCCC(=O)O)C(=O)O)C(=O)N[C@@H](CC(N)=O)C(=O)N[C@@H]([C@@H](C)O)C(=O)N[C@@H](C)C(=O)N[C@@H]([C@@H](C)O)C(=O)N1)[C@@H](C)O)C(=O)N1CCC[C@H]1C(=O)N[C@@H](CO)C(=O)N[C@@H](CO)C(=O)N[C@H](C(=O)N[C@@H](CC(N)=O)C(=O)N[C@H](C(=O)NCC(=O)N[C@@H](CCCNC(=N)N)C(=O)N[C@@H](CC(N)=O)C(=O)N[C@H](C(=O)N[C@@H](Cc1ccc(O)cc1)C(N)=O)[C@@H](C)O)C(C)C)[C@@H](C)O
notes: Analogue of human amylin; disulfide and C-terminal amide as told for h-amylin; also called compound 84

Target: T1, rat calcitonin receptor
Assay: ratio of binding IC50 at rat calcitonin receptor to IC50 at rat amylin receptor (reference)

Ratio rCT/rAmylin binding	Binder
162	B1
122	B2
36.2	B3
94.3	B4

Target: T2, human calcitonin receptor
Assay: ratio of binding IC50 at human calcitonin receptor to IC50 at human amylin receptor (reference)
Procedure: The resulting pellet was resuspended, homogenized and centrifuged (20.000 rpm, 15 min) in a buffer containing 20 mM Na-HEPES and 0.1 mM EDTA (pH 7.4, buffer 2). The resulting pellet was resuspended in buffer 2 and protein concentration was measured (BCA protein Assay, Pierce). The homogenate was kept cold during the whole procedure. The membranes were kept at −80° C. until use. The assay was performed in a 384 well Optiplate (PerkinElmer) in a total volume of 40 ul. Membranes were mixed with SPA beads. Final concentration of membranes 35 ng/μL final and SPA beads was 0.05 mg/well. Test-compounds were dissolved in DMSO and further diluted in assay buffer (50 mM Hepes, pH 7.4, 1 mM CaCl2, 5 mM MgCl₂, 0.1% OA and 0.02% Tween20). […] The final mixture was incubated with shaking at 400 rpm for 120 min at 25° C. prior to centrifugation (1500 rpm, 10 min). Samples were analyzed on TopCounter™ (Packard). The IC₅₀ was calculated using (one site binding competition analysis) GraphPad Prism5 as a measure of receptor affinity.
Membranes were prepared in the following way; the cells were rinsed with PBS and incubated with Versene for approximately 5 min before harvesting. The cells were flushed with PBS and the cell-suspension was centrifuged for 5 min at 1000 rpm. Cells were homogenized (Ultrathurrax) in a buffer containing 20 mM Na-HEPES and 10 mM EDTA (pH 7.4) and centrifuged at 20.000 rpm for 15 min. The resulting pellet was resuspended, homogenized and centrifuged (20.000 rpm, 15 min) in a buffer containing 20 mM Na-HEPES and 0.1 mM EDTA (pH 7.4, buffer 2). The resulting pellet was resuspended in buffer 2 and protein concentration was measured (BCA protein Assay, Pierce). The homogenate was kept cold during the whole procedure. The membranes were kept at −80° C. until use. Assay was performed in a 384 well Optiplate (PerkinElmer) in a total volume of 40 ul. Membranes were mixed with SPA beads.

Ratio hCT/hAmylin binding	Binder
32	B1
64.4	B2
68.1	B3
120	B4

Target: T1, rat calcitonin receptor
Assay: SPA competition with 125I-calcitonin, membranes with rat calcitonin receptor (Assay VIII)

IC50 [nM]	Binder
44.8	B1
28.5	B2
60.4	B3
477	B4
